Target: T1, Ngo-Lig E (ATP-dependent DNA ligase Lig E), mature, His-tagged (Neisseria gonorrhoeae MS11, UniProt PDB:8U6X_1 1-279)
T1 sequence: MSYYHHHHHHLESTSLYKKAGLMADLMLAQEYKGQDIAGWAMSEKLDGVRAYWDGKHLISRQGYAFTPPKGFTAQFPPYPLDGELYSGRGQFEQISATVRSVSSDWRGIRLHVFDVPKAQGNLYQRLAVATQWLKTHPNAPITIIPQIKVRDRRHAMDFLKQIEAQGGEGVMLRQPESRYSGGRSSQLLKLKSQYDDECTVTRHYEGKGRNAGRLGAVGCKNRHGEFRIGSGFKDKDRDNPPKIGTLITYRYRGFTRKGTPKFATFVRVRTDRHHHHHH
Test: X-ray crystallography (2.44 A); 5 mM EDTA; enzyme-adenylate; open non-catalytic conformation, non-specific engagement of unbroken duplex, only 6 bp visible (averaged register); Crystallization: 478.7 uM protein, 1.2 molar excess DNA, 5 mM EDTA, 1 h on ice; crystals in 0.5 M potassium thiocyanate, 0.1 M Bis Tris Propane pH 8.0, 18 C
Details: protein: recombinant; tags: C-terminal His (N-terminal His-MBP tag cleaved by TEV); nicked duplex, 3 strands; as printed the 9-mer and 11-mer leave a 1-nt gap (C) opposite the 21-mer; blunt outer ends

B1: nicked 21-mer duplex used for co-crystallization (dsDNA)
DNA 1: ATTGCGACC
DNA 2: CACTATCGGAA
DNA 3: TTCCGATAGTGGGGTCGCAAT
modifications: 5'-phosphate on CACTATCGGAA
binding result: binds

From publication PMC10799422, “A role for the ATP-dependent DNA ligase lig E of Neisseria gonorrhoeae in biofilm formation”
